Each block holds one molecule with its values, some of them ahead of it.
Key:
[1] = molecular target: T1, SyCS (Synechocystis sp. PCC 6803, UniProt Q59977); assay: DTNB assay at A412, residual activity; format: biochemical; conditions: read-out: % activity at 5 mM
T1 construct: gene gltA; full-length gltA (synthesized) in pGEX5X-1, GST-tagged, tag not reported cut; expressed in E. coli DH5alpha, glutathione-Sepharose purified
T1 sequence (Q59977 1-397): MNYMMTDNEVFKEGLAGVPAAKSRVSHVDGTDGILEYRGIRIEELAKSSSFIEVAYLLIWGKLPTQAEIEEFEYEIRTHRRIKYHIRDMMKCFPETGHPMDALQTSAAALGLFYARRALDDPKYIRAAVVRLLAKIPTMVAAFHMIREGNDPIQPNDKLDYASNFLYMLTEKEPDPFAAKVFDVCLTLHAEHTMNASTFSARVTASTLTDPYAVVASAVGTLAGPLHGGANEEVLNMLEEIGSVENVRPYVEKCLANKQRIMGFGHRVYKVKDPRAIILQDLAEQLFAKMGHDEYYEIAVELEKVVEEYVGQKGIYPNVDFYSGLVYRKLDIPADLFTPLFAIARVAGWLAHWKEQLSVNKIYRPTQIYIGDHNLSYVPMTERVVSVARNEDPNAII

[2] = molecular target: T1, SyCS; assay: DTNB assay at A412, relative activity; format: biochemical; conditions: read-out: % activity at 5 mM
[3] = substrate: O=C(O)CC(=O)C(=O)O; assay: DTNB assay at A412, Lineweaver-Burk; format: biochemical, Synechocystis sp. PCC 6803; conditions: acetyl-CoA 0.5 mM, no effector, 50 mM Tris-HCl pH 7.5, 37 °C, GST-tagged enzyme
Description: (§1) DTNB assay at […], Lineweaver-Burk on SyCS

[4] = substrate: CC(=O)SCCNC(=O)CCNC(=O)[C@H](O)C(C)(C)COP(=O)(O)OP(=O)(O)OC[C@H]1O[C@@H](n2cnc3c(N)ncnc32)[C@H](O)[C@@H]1OP(=O)(O)O; assay: DTNB assay at A412, Lineweaver-Burk; format: biochemical, Synechocystis sp. PCC 6803; conditions: oxaloacetate 1 mM, no effector, 50 mM Tris-HCl pH 7.5, 37 °C, GST-tagged enzyme
Description: as §1

Molecule: O=C(O)CCC(=O)C(=O)O [2-oxoglutarate]
activity at 5000 µM [1]: 2%

B1: SyCS (Synechocystis sp. PCC 6803 substr. Kazusa) (protein)
chain: MNYMMTDNEVFKEGLAGVPAAKSRVSHVDGTDGILEYRGIRIEELAKSSSFIEVAYLLIWGKLPTQAEIEEFEYEIRTHRRIKYHIRDMMKCFPETGHPMDALQTSAAALGLFYARRALDDPKYIRAAVVRLLAKIPTMVAAFHMIREGNDPIQPNDKLDYASNFLYMLTEKEPDPFAAKVFDVCLTLHAEHTMNASTFSARVTASTLTDPYAVVASAVGTLAGPLHGGANEEVLNMLEEIGSVENVRPYVEKCLANKQRIMGFGHRVYKVKDPRAIILQDLAEQLFAKMGHDEYYEIAVELEKVVEEYVGQKGIYPNVDFYSGLVYRKLDIPADLFTPLFAIARVAGWLAHWKEQLSVNKIYRPTQIYIGDHNLSYVPMTERVVSVARNEDPNAII
notes: full-length gltA (synthesized) in pGEX5X-1, GST-tagged, tag not reported cut; expressed in E. coli DH5alpha, glutathione-Sepharose purified
Km [3]: 91 ± 11 µM | kcat [3]: 2.76 ± 0.26 s⁻¹ | kcat/Km [3]: 30500 ± 3170 M⁻¹ s⁻¹ | Km [4]: 220 ± 77 µM | kcat [4]: 2.51 ± 0.24 s⁻¹ | kcat/Km [4]: 12100 ± 2950 M⁻¹ s⁻¹

Further lines, results first:

activity at 5000 µM [1]: 14%
Molecule: C=C(OP(=O)(O)O)C(=O)O [phosphoenolpyruvate]

activity at 5000 µM [2]: 369%
Molecule: Nc1ncnc2c1ncn2[C@@H]1O[C@H](COP(=O)(O)OP(=O)(O)O)[C@@H](O)[C@H]1O [ADP]

— publication PMC6465352 (Scientific Reports, 2019)
